Assay: yeast display, Sf9 membrane polyspecificity reagent, FACS + sequencing; frameworks hold sequencing errors
Summary of the method: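 Galactose-induced (36–48 hours) yeast carrying a synthetic nanobody display library were exposed to 10% biotinylated, detergent-solubilized Sf9 membrane reagent at 4 °C for 1 hour. FACS followed streptavidin microbead enrichment, using low and high (top ~1%) gates for expression (anti-HA) and reagent binding (streptavidin). Colony PCR, MiSeq 2 × 250 sequencing and CDR-length filtering followed. Labels for polyreactivity reflect the gate of origin.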

Sequence | polyreactivity (PSR sort gate)
QVQLVESGGGLVQAGGSLRLSCAASGRTFNWNALGWYRQAPGKERELVATISRRGGSTYYADSVKGRFTISRDNAKNTVYLQMNSLKREDTAVYYCITAGRYGYDYWGQGTQVTVSS | high polyreactivity
QVQLVESGGGLVQAGGSLRLSCAASGRTFNWYAMGWYRQAPGKERELVAAIRVNGGITYYADSVKGRFTISRDNAMNTVYLQMNSLKPEDTAVYYCAVYSRQGLGYWGQGTQVTVSS | high polyreactivity
QVQLVESGGGLVQAGGSLRLSCAASGRTFNYYAMGSYRQAPGKERELVAAISWSGTPTYYADSVKGRFTISRDNAKNTVYLQMNSLKPEDTAVYYCAAHSGSTYKYWGQGTQVTVSS | low polyreactivity
QVQLVESGGGLVQAGGSLRLSCAASGRTFNYYAMGWYRQAPGKERELVAAISASGGRTYYADSVKGRFTISRDNAKNTVYLQMNSLKPAETAVYYCAKVSSFDAQFDYWGQGTQVTVSS | high polyreactivity
QVQLVESGGGLVQAGGSLRLSCAASGRTFNYYAMGWYRQAPGKERELVAAISRSGGSTYYADSVKGRFTISRDNAKNTVYLQMNSLKPEDTAVYYCAVAWNVRGVGARQRYIYGYWGQGTQVTVSS | high polyreactivity
QVQLVESGGGLVQAGGSLRLSCAASGRTFNYYAMGWYRQAPGKERELVAAISWSGTPTYYADSVKGRFTISRDNAKNTVYLQMNSLKPEDTAVYYCAAGYNYTSYADLDYWGQGTQVTVSS | low polyreactivity
QVQLVESGGGLVQAGGSLRLSCAASGRTFNYYAMGWYRQAPGKERELVAAITSGSTTYYADSVKGRFTISRDNAKNTVYLQMNSLKPEDTAVYYCATAWRPADNSWGQGTQVTVSS | low polyreactivity
QVQLVESGGGLVQAGGSLRLSCAASGRTFNYYARGWYRQAPGKERELVAAISKRGGSTYYADSVKGRFTISRDNAKNTVYLQMNSLKPEDTAVYYCNAAQSVELGYDYWGKGTQVTVSS | high polyreactivity
QVQLVESGGGLVQAGGSLRLSCAASGRTFPAYAMGWYRQAPGKERELVASIDLSGGSTSYADSVKGRFTISRDNAKNTVYLQMNSLKPEDTAVYYCAKKGRWSSASSGYYYWGQGTQVTVSS | low polyreactivity
QVQLVESGGGLVQAGGSLRLSCAASGRTFPCYAMGWYRQAPGKEREFVAAITASGDSTYYADSVKGRFTISRDNAKNTVYLQMNSLKPEDTAVYYCAADLPVWYVTRYDYWGQGTQVTVSS | low polyreactivity
QVQLVESGGGLVQAGGSLRLSCAASGRTFPEYDMGWYIQAPGKERELVAAISTSGGSTYYADSVKGRFTISRDNAKNTVYLQMNSLKPEDTAVYYCAAQVTSIWGFTYAYRYDYWGQGTQVTVSS | low polyreactivity
QVQLVESGGGLVQAGGSLRLSCAASGRTFPGNAMGWYRQAPGKERELVAAISYRGGSTYYADSVKGRFTISRDNAKNTVYLQMNSLKPEDTAVYYCAAASERTGYYYWGQGTQVTVSS | high polyreactivity
QVQLVESGGGLVQAGGSLRLSCAASGRTFPGNAMGWYRQAPGKERELVAGISYRGGSTYYADSVKGRFTISRDYGKNTVYLQMNSLKPEDTAVYYCARDYSRHKGDYWGQGTQVNVSS | low polyreactivity
QVQLVESGGGLVQAGGSLRLSCAASGRTFPGYAMGWYRQAPGKERELVASITSRGGITNYADSVKGRFTISRDIAKNTVYLQMLCLKPEDTSVYYCAAVSFWTMDYWGQGTQVTVSS | low polyreactivity
QVQLVESGGGLVQAGGSLRLSCAASGRTFPGYAMGWYRQAPGKERELVATITFSDGSTYYADSVKGRFTISRDNAKNSVYLQMNSLKQEDTAVYYCNARRSYFLRYGVNYWGQGNQVTVSS | low polyreactivity
QVQLVESGGGLVQAGGSLRLSCAASGRTFPGYAMGWYRQAPGKETELVATISSADSTNYADSVKGRFTISRDNAKNTVYLQMNSLKPEDTAVYYCAERYGRNGAAAQYTGWYRYDYWGQGTQVTVSS | low polyreactivity
